The test deals with T1, Aβ42 oligomers (UniProt P05067 672-713).
T1 construct: domain: Aβ42; Oligomeric state
Kind of test: ELISA on coated Aβ42 oligomers, His-tagged polypeptide at 1 µg per well.

T1 sequence (P05067 672-713 limits assumed): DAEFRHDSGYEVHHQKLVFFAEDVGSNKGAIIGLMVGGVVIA
Method: 100 μL of monomers, oligomers or fibers of Aβ42, PrP, amylin, insulin or lysozyme were respectively coated onto a 96-well ELISA microplate at 1 μg/well, BSA was used as a negative control. The plate were then placed at 37° C. for 2 h, blocked with 200 μL/well of 3% BSA at 37° C. for 2 h, and washed 3 times with PBS. 100 μL of histidine-tagged ZR polypeptide solution was added, and the plate was incubated at room temperature for 1 h, and then washed 3 times with PBS containing 0.1% Tween-20. 100 μL of HRP-linked antibody 9E10 which can recognize the histidine tag was added to each well, and the plate was incubated at room temperature for 1 h, and then washed 3 times with PBS containing 0.1% Tween-20. 100 μL of TMB was added to each well, and the plate was placed at 37° C. for 20 min. Then, 50 μL of 1 mmol/L sulfuric acid was added to each well to terminate the reaction, and OD450 values were measured using a microplate reader. The above procedure was repeated for 3 times under the same condition.

B1: ZR4-ΔN (SEQ ID NO: 3), histidine-tagged (peptide)
peptide: SFFNKR
notes: ZR derivative with one Asn deleted; not shown: histidine tag
B1 registered an OD450 of 0.49.

B2: ZR + N (SEQ ID NO: 5), histidine-tagged (peptide)
peptide: SFFNNNKR
notes: ZR derivative with one more Asn; not shown: histidine tag
In turn, B2 gave an OD450 of 0.54.

B3: ZR + K (SEQ ID NO: 6), histidine-tagged (peptide)
peptide: SFFNNKRK
notes: ZR derivative with a Lys added after Arg7; not shown: histidine tag
As for B3, the OD450 came to 0.56.
With SAFQNKR (not shown: histidine tag) [ZR4-FN/AQ (SEQ ID NO: 4), histidine-tagged], the OD450 was 0.47.

The values are drawn from patent publication US20190330271A1 (HANGZHOU WISDOM PANACEA BIOLOGICS, published 2019).
